{
  "source": "patent US20040248211A1",
  "about": "“ICAM-related protein” (priority 1992, published 2004)",
  "key": {"[1]": {"test_system": "Monocytes", "experiment": "MCP-1 release from monocytes", "format": "cell-based, human", "settings": "for release of MCP-1 into conditioned medium: 8 and 18 hour time points", "method": "Monocytes were isolated by elutriation from peripheral blood of normal donors. Plastic wells were coated with ICR-1.1, 2.1, 8.1 or albumin alone (10 μg/ml). After blocking free sites, the cells were placed into the wells in medium. After 1 hour in culture, the cells that were in the ICR Mab treated wells had flattened onto the substratum. Those cells plated in wells treated with BSA plus or minus LPS were rounded and not spread. After 8 or 18 hours of incubation at 37° C., the medium was removed and assayed for IL-8 immunoreactivity. […] By 18 hours, IL-8 levels in media from ICR monoclonal antibody wells were much elevated over control levels. ICR-1.1 induced levels increased ten times, ICR-2.1 induced levels were four times and ICR-8.1 induced levels were two times over the levels seen at the 8 hour time point. Similar experiments with monocytic cell lines (U937 and HL60) to determine if ICR monoclonal antibody can induce IL-8 release were conducted. U937 cells responded to each of the ICR monoclonal antibody treated wells by releasing IL-8 into the conditioned medium. […] No detectable morphological changes were detected with the U937 or HL60 cells.\nMonocytes isolated and treated as described above were tested for release of MCP-1 at 8 and 18 hour time points. […] MCP-1 release elicited by ICR-1.1 peaked at 8 hours. Release from Mab ICR-2.1 and ICR-8.1 was not detected until 18 hours when it was 4-fold greater than the peak 1.1 induction level."}, "[2]": {"biological_target": "T1, Protein 2 (ICAM-R domains 1-2 fused to ICAM-1) (Homo sapiens, UniProt P05362+P32942, A227S/A249V/A265P/D240V/E234D/F230V/M262R/P219L/P238T/R224Q/S236Q/T242S/V220A/W237G/Y255H)", "T1 construct": "domains of ICAM-R (residues 1 to 190) fused to ICAM-1 (residues 216 to 532); ICAM-1 residues 216 to 532 (fusion partner in the same polypeptide); expressed in transfected cells; host or cells: COS cells, plasmid pcDNA1Amp.RD1-2.1D3-5", "T1 sequence (P32942+P05362 fused with the stated changes)": "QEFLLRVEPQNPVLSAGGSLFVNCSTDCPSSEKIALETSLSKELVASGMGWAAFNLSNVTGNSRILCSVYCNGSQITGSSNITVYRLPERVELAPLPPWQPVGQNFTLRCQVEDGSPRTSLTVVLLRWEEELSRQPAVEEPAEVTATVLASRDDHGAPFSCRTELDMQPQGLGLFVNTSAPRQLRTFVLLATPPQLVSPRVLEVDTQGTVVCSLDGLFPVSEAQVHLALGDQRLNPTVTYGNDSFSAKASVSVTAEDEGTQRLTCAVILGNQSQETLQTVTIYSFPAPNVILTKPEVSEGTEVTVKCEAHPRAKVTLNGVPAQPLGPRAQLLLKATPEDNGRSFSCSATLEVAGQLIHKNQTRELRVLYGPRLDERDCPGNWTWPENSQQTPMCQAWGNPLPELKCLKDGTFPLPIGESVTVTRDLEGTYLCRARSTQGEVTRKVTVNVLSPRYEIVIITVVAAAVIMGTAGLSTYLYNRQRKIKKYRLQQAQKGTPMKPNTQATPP", "experiment": "FACS binding to COS cell transfectants", "settings": "antibody 5.0 ug/ml", "description": "(§1) FIG. 7 is a diagram of the chimeric proteins whose construction is outlined below. Protein number 1 contains the amino-terminal immunoglobulin-like domain of ICAM-R (residues 1 to 93) fused to ICAM-1 (residue 117 to 532). Protein number 2 contains the first two amino terminal immunoglobulin-like domains of ICAM-R (residues 1 to 190) fused to ICAM-1 (residues 216 to 532). Protein number 3 contains the first three immunoglobulin-like domains of ICAM-R (residues 1 to 291) fused to ICAM-1 (residues 317 to 532).\n(§2) For the anti-ICAM-R monoclonal antibody binding assay, COS cells transfected with constructs encoding the ICAM-R chimeric proteins or control constructs were removed from the plates by EDTA treatment and aliquoted at 2.5×10^5 cells per well in a 96-well round bottom plate. Cells were washed 3 times with ice cold washing buffer (PBS containing 1% BSA and 0.05% sodium azide). Anti-ICAM-R monoclonal antibody was applied at 5.0 ug/ml in 50 ul final volume and incubated on ice for 30 minutes. Cells were then washed three times with cold washing buffer and incubated with the FITC labeled secondary antibody (sheep anti-mouse IgG F(ab′)2) at a 1:100 dilution on ice for 30 minutes in dark in 50 ul final volume. After the incubation, cells were washed again for three times in the ice cold washing buffer and resuspended in 200 ul of 1% paraformaldehyde. The samples were analyzed on a Becton-Dickinson FACScan instrument. Results of the assay are given below in Table 5 as percent positive COS cell transfectants, wherein MOPC 21 (IgG1) and UPC 10 (IgG2a) are isotype matched controls, 18E3D is an ICAM-1 specific monoclonal antibody and ICR-1.1 to ICR-9.2 are ICAM-R specific monoclonal antibodies. The reactivities of monoclonal antibodies ICR-1.1 through ICR-9.2 were assayed in a different experiment than monoclonal antibodies ICR-12.1 through ICR-17.1."}, "[3]": {"biological_target": "T2, Protein 1 (ICAM-R domain 1 fused to ICAM-1) (Homo sapiens, UniProt P05362+P32942, A175T/A179V/A227S/A249V/A265P/D143G/D183H/D240V/E159K/E168G/E234D/F135L/F230V/G202E/M196L/M262R/P127S/P187N/P238T/Q133K/Q164E/Q197R/R211Y/R214Q/R224Q/S145A/S149N/S162K/S180R/S236Q/T148A/T242S/V205E/V220A/W157G/W237G/Y255H)", "T2 construct": "immunoglobulin-like domain of ICAM-R (residues 1 to 93) fused to ICAM-1 (residue 117 to 532); ICAM-1 residue 117 to 532 (fusion partner in the same polypeptide); expressed in transfected cells; host or cells: COS cells, plasmid pcDNA1Amp.RD1.ID2-5", "T2 sequence (P32942+P05362 fused with the stated changes)": "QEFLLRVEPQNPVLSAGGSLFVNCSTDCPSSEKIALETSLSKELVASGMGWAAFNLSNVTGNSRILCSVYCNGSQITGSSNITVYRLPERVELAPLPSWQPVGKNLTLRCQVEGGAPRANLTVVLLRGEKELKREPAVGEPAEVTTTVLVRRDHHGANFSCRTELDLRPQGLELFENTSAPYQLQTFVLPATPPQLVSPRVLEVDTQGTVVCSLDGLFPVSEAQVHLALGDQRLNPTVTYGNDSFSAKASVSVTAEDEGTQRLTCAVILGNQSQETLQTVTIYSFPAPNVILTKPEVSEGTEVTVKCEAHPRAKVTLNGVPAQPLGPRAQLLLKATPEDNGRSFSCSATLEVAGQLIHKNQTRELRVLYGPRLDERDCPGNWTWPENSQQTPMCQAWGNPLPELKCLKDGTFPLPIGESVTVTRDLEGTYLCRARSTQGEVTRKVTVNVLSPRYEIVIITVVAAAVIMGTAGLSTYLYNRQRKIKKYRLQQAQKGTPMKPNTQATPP", "experiment": "FACS binding to COS cell transfectants", "settings": "for percent positive COS cell transfectants, Protein 1: antibody 5.0 ug/ml", "description": "as §1, §2"}},
  "data": [
    {"molecule": "ICR-8.1: anti-ICAM-R monoclonal antibody, IgG1, domain 1, ATCC HB 11232 (antibody, V domains shown) VH: EIQLQQTGPELVKPGASVKISCKASGYSFTDCIILWVKQSHGKGLEWIGKINPYFGTTTYNLKFKGKATLTVDKSSSTAHMQLNSLTSEDSAVYYCARKEAYPDAMDYWGQGTSVTVSS VL: DAVMTQTPLSLPVSLGDQASISCRSSQSLVHSNGDTYLHWYLQKPGQSPQLLIYKVSNRFSGVPDRFSGSGSGTDFTLKLSRVEAEDLGVYFCSQSTHVPYTFGGGTKLEIK", "values": [
      {"measurement": "release of MCP-1 into conditioned medium", "setting": "[1]", "value": "induced release of MCP-1"},
      {"measurement": "MCP-1 release at 18 hours relative to the peak ICR-1.1 induction level", "setting": "[1]; not detected until 18 hours", "value": 4, "unit": "fold"},
      {"measurement": "percent positive COS cell transfectants, Protein 2", "setting": "[2]", "value": 64.25, "unit": "%"},
      {"measurement": "recognition of hybrid with only ICAM-R domain 1 (domain 1 specific)", "setting": "[3]", "value": "recognize the hybrid molecule"},
      {"measurement": "percent positive COS cell transfectants, Protein 1", "setting": "[3]", "value": 57.34, "unit": "%"}
    ]},
    {"molecule": "ICR-1.1: anti-ICAM-R monoclonal antibody, IgG2a, domain 1, ATCC HB 11053 (antibody, V domains shown) VH: QVQLQQSGAELAKPGASVKMSCKASGYTFTVYWMHWVKQRPGQGLEWIGYINPNTDYTEYNQRFQDKATLTADKSSSTAYMQLSSLTSEDSAVYYCARWGGNSYGLDYWGQGTSVTVSS VL: QIVLTQSPALMSASPGEKVTMTCSASSSVSYIYWYQQKPRSSPKPWIYLTSNLASGVPARFSGSGSGASYSLTISIMEAEDAATYYCQQWKSIPLTFGAGTKLELK", "values": [
      {"measurement": "time of peak MCP-1 release", "setting": "[1]", "value": 8, "unit": "h"},
      {"measurement": "release of MCP-1 into conditioned medium", "setting": "[1]", "value": "induced release of MCP-1"},
      {"measurement": "percent positive COS cell transfectants, Protein 2", "setting": "[2]", "value": 68.32, "unit": "%"},
      {"measurement": "recognition of hybrid with only ICAM-R domain 1 (domain 1 specific)", "setting": "[3]", "value": "recognize the hybrid molecule"},
      {"measurement": "percent positive COS cell transfectants, Protein 1", "setting": "[3]", "value": 60.27, "unit": "%"}
    ]}
  ]
}
